Patent publication US20180127505A1, “HUMANIZED ANTI-AXL ANTIBODIES AND THEIR CONJUGATES” (MEDIMMUNE LIMITED, priority 2015, published 2018)

B1: Ab2: anti-AXL antibody, VH SEQ ID NO. 2, VL SEQ ID NO. 5, constant region derived from human antibodies (antibody, V domains shown)
VH: MGFKMESQFQVFVFVFLWLSGVDGQVQLVESGGGVVQPGRSLRLSCAASGFTFSSYGMSVRQAPGKGLEWVATISSGGSYTYYPDSVKGRFTISRDNSKNTLYLQMNSLRAEDTAVYYCARHPIYYTYDDTMDYWGQGTTVTVSS
VL: MGFKMESQFQVFVFVFLWLSGVDGEIVLTQSPATLSLSPGERATLSCSASSSVSSGNFHWYQQKPGLAPRLLIYRTSNLASGIPDRFSGSGSGTDFTLTISRLEPEDFAVYYCQQWSGYPWTFGPGTKVDIK
modifications: human constant regions; Synthetic heavy chain variable region 1H12RHA; Synthetic light chain variable region 1H12RKA
notes: 5, constant region derived from human antibodies
B2: Ab5: anti-AXL antibody, VH SEQ ID NO. 3, VL SEQ ID NO. 7, constant region derived from human antibodies (antibody, V domains shown)
VH: MGFKMESQFQVFVFVFLWLSGVDGEVQLVESGGGLVQPGGSLRLSCAASGFTFSSYGMSWVRQAPGKGLEWVATISSGGSYTYYPDSVKGRFTISRDNAKNSLYLQMNSLRAEDTAVYYCARHPIYYTYDDTMDYWGQGTLVTVSS
VL: MGFKMESQFQVFVFVFLWLSGVDGEIVLTQSPGTLSLSPGERATLSCSASSSVSSGNFHWYQQKPGLAPRLLIYRTSNLASGIPARFSGSGSGTDFTLTISSLEPEDFAVYYCQQWSGYPWTFGGGTKLEIK
modifications: human constant regions; Synthetic heavy chain variable region 1H12RHB; Synthetic light chain variable region 1H12RKB
notes: 7, constant region derived from human antibodies
B3: Ab3: anti-AXL antibody, VH SEQ ID NO. 2, VL SEQ ID NO. 7, constant region derived from human antibodies (antibody, V domains shown)
VH: MGFKMESQFQVFVFVFLWLSGVDGQVQLVESGGGVVQPGRSLRLSCAASGFTFSSYGMSVRQAPGKGLEWVATISSGGSYTYYPDSVKGRFTISRDNSKNTLYLQMNSLRAEDTAVYYCARHPIYYTYDDTMDYWGQGTTVTVSS
VL: MGFKMESQFQVFVFVFLWLSGVDGEIVLTQSPGTLSLSPGERATLSCSASSSVSSGNFHWYQQKPGLAPRLLIYRTSNLASGIPARFSGSGSGTDFTLTISSLEPEDFAVYYCQQWSGYPWTFGGGTKLEIK
modifications: human constant regions; Synthetic heavy chain variable region 1H12RHA; Synthetic light chain variable region 1H12RKB
notes: as for B2
B4: Ab4: anti-AXL antibody, VH SEQ ID NO. 3, VL SEQ ID NO. 5, constant region derived from human antibodies (antibody, V domains shown)
VH: MGFKMESQFQVFVFVFLWLSGVDGEVQLVESGGGLVQPGGSLRLSCAASGFTFSSYGMSWVRQAPGKGLEWVATISSGGSYTYYPDSVKGRFTISRDNAKNSLYLQMNSLRAEDTAVYYCARHPIYYTYDDTMDYWGQGTLVTVSS
VL: MGFKMESQFQVFVFVFLWLSGVDGEIVLTQSPATLSLSPGERATLSCSASSSVSSGNFHWYQQKPGLAPRLLIYRTSNLASGIPDRFSGSGSGTDFTLTISRLEPEDFAVYYCQQWSGYPWTFGPGTKVDIK
modifications: human constant regions; Synthetic heavy chain variable region 1H12RHB; Synthetic light chain variable region 1H12RKA
notes: as for B1
B5: Ab1 (antibody, V domains shown)
VH: EVQLVESGGDLVKPGGSLKLSCAASGFTFSSYGMSWVRQTPDKRLEWVATISSGGSYTYYPDSVKGRFTISRDNAKNTLYLQMSSLKSEDTAMYYCARHPIYYTYDDTMDYWGQGTSVTVSS
VL: ENVLTQSPAIMAASPGEKVTMTCSASSSVSSGNFHWYQQKPGTSPKLWIYRTSNLASGVPARFSGSGSGTSYSLTISSMEAEDAATYYCQQWSGYPWTFGGGTKLEIK

What was measured:
Human Axl-Fc chimera = biological target: T1, Human Axl-Fc chimera (Homo sapiens, UniProt P30530); assay: SPR measurement of antibody affinity, AXL-Fc chimera antigen; format: binding; details: for Kd / ka, AXL-Fc antigen / kd, AXL-Fc antigen: HBSEP+ running buffer, bivalent binding model
T1 construct: purchased R&D Systems 154-AL
T1 sequence (P30530 with tags, fused parts or gaps isoform P30530-2 limits assumed): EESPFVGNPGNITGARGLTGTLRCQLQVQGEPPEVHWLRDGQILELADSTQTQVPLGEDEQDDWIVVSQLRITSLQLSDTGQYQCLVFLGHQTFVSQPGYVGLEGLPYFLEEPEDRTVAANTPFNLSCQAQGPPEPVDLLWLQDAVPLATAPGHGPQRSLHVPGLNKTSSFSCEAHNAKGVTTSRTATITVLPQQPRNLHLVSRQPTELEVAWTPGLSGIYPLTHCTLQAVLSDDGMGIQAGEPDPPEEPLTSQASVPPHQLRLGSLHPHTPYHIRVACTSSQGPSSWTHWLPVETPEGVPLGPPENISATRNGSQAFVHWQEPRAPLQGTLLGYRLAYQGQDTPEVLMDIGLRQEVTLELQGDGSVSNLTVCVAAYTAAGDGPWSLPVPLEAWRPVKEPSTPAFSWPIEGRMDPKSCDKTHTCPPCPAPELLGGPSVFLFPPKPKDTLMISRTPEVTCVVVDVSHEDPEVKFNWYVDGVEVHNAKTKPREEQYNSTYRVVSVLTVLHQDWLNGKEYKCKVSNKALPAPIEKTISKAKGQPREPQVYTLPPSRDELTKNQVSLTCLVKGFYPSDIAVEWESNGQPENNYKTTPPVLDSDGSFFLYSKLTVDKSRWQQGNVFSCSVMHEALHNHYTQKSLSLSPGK
Procedure: Protocol 4A: SPR Measurement of Antibody Affinity
• 1. Sensor Chip CM5 Biacore; Cat. # BR-1000-14 • 2. Amine Coupling Kit (EDC, NHS, ethanolamine-HCl) Biacore; Cat. # BR-1000-50 • 3. Immobilization buffer (10 mM Na acetate, pH 4.0) Biacore; Cat. # BR-1003-49 • 4. 50 mM NaOH Biacore; Cat. # BR-1003-58 • 5. Running buffer (PBS/Tween20 0.05% v/v) • 6. Biacore T200 GE Healthcare • 7. Regeneration solution: 10 mM HCl, 1 M NaCl
• Activate flow cell 2 with NHS-EDC 420s at 5 μl/min, then inject human AxI-Strep-His (Evitria) (10 μg/mL in 10 mM sodium acetate, pH 4.0) to achieve a coupling of […]. Block with ethanolamine for 420s. Repeat the process for flow cell 1 but with no antigen to create a reference flow cell. 12RU AXL fusion protein was coated. • For the Fc fusion, Human Axl-Fc chimera (R&D Systems #154-AL) (5 μg/mL in 10 mM sodium acetate, pH 4.5) was used with the above protocol. 16RU of AXL-Fc was coated. Protocol with AXL-Strep-His Antigen • Serial 10x dilutions of antibody, from 3000 nM, were made in PBS/Tween20. 2x regeneration cycles were used with 10 mM HCl, 1 M NaCl for 30s at 30 μl/min for both cycles. Start-up solution was PBS/Tween20 and set to 3 cycles. • Sample injection parameters were 120s at 30 μl/min, with 600s dissociation time. • Prime and normalise detector were run before sample application with experimental conditions 25 C and sample storage at 4 C. • Kinetic analysis used BIAevaluation software with bivalent ligand binding model. For chimeric 1H12 with AXL-Strep-His, “heterogeneous ligand” binding model was used due to poor fit with bivalent or monovalent algorithms. • Each antibody dilution was injected twice. Protocol with AXL-Fc Chimera Antigen • The above protocol was used except that the running buffer was HBSEP+, serial 10x dilutions of antibody were from 500 nM in HBSEP+ running buffer and were injected for 180 sec. • Analysis used BIAevaluation software with the bivalent binding model.

[1] = Capillary isoelectric focussing (pI); format: physicochemical; details: HEK293F expression product
Procedure: Protocol 5: Capillary Isoelectric Focussing
• PA 800 plus (AB SCIEX) • Anolyte Solution: 200 mM Phosphoric Acid (Sigma-Aldrich #345 245). • 4.3M Urea (Sigma-Aldrich #U0631) in water. • Catholyte Solution: 300 mM Sodium Hydroxide. • 3M Urea (Sigma-Aldrich #U0631) in cIEF Gel (Beckman Coulter #477497). • Chemical Mobiliser: 350 mM Acetic Acid (Sigma-Aldrich #537 020). • Pharmalyte 3-10 (GE Healthcare 17-0456-01). • Cathodic Stabiliser: 500 mM Arginine (Sigma-Aldrich #A5006). • cIEF Peptide markers PI 4-10 (Beckman Coulter # A58481). • Anodic Stabiliser: 200 mM Iminodiacetic Acid (Sigma-Aldrich #220 000). • Neutral Capillary, 50 μm i.d.×45 cm, (Beckman Coulter #477 441)
• Turn on the PA800+ machine and UV lamp, allowing it to warm up 30 mins before use. • Clean the system electrodes and interface block with a damp Kimwipe. • Prepare buffer trays as shown, with 1.5 mL reagent per vial, 1 mL of water in the waste and place in the system. • 1. DDI water • 2. Anolyte • 3. Urea Solution • 4. 3M urea/cIEF Gel • 5. Chemical Mobilizer • 6. Waste • 7. Catholyte • 8. Chemical Mobilizer • 9. BI (Inlet Buffer Tray) • 10. BO (Outlet Buffer Tray) • NOTE. Each set of buffer vials is good for 6 consecutive runs or for 24 hours inside the instrument. • Insert the capillary cartridge into the system and close the front panel. • NOTE. […] When the capillary is not in use, submerge the capillary ends in vials filled with DDI water. • Prepare cIEF master mix using the table below. Dispense each reagent into a centrifuge tube, vortex 1 min, invert every 15-20 sec to ensure complete mixing and store at 2° C. to 8° C. for up to 1 day.
• Desalt and concentrate each antibody (to about 5 mg/ml) in 2M urea using Amicon Ultra 0.5 mL centrifugal filters (Sigma Z677108). • Mix 200 μL of master mix with 10 μL of protein, vortex the cIEF sample for 1 min, inverting the tube every 15-20 sec, then centrifuge at high speed to remove any air bubbles. Transfer 100 μL of sample into a micro vial. Place the micro vial into a universal plastic vial and cap it with a blue cap. Then place the sample vial in the inlet sample tray. • Run the “cIEF Conditioning—PA 800 plus.met” method to condition the column. • Rinse for 5 min at 50 psi with Chemical Mobilizer. See FIG. 2.10. • 2 Rinse for 2 min at 50 psi with DDI water. • 3 Rinse for 5 min at 50 psi with cIEF gel. • 4 Submerge both of the capillary ends in vials filled with DDI water. • Use the “cIEF Separation—PA 800 plus.met” method to create a sequence containing all protein samples and a blank. • Rinse for 3 min at 50 psi with Urea Solution. See FIG. 2.11. • Rinse for 2 min at 50 psi with DDI water. • Inject sample for 99.0 sec at 25 psi. • Water dip by submerging both capillary ends in DDI water. • Focusing step, 15 min at 25 kV under normal polarity (Time=0). • Chemical mobilization, 30 min at 30 kV under normal polarity (Time=15 min). • Stop data collection (Time=45 min). • Rinse for 2 min at 50 psi with DDI water (Time=45.10 min). • Submerged both of the capillary ends in DDI water (Time=47.20 min). • End the method (Time=47.30 min). • Put the “cIEF Shutdown—PA 800 plus.met” method at the end of the sequence to rinse the capillary and turn off the UV. • Rinse for 2 min at 50 psi with DDI water. See FIG. 2.12. • Rinse for 5 min at 50 psi with cIEF gel. • Turn off the UV lamp. • Submerge both of the capillary ends in vials filled with DDI water. • For short term storage (1 to 3 days), leave the capillary on the instrument. […]

| Molecule | affinity for Axl-Fc compared with Ab1 (Human Axl-Fc chimera) | Kd (Human Axl-Fc chimera) | ka, AXL-Fc antigen (Human Axl-Fc chimera) | kd, AXL-Fc antigen (Human Axl-Fc chimera) | pI [1] |
| --- | --- | --- | --- | --- | --- |
| B1 | higher affinity | 1.84 nM | 83700 M⁻¹ s⁻¹ | 0.000154 s⁻¹ | 8.06 |
| B2 |  |  | 20600 M⁻¹ s⁻¹ | 0.000159 s⁻¹ | 7.54 |
| B3 |  | 8.5 nM | 24500 M⁻¹ s⁻¹ | 0.0002 s⁻¹ | 8.15 |
| B4 | higher affinity |  | 290000 M⁻¹ s⁻¹ | 0.000396 s⁻¹ | 7.56 |
| B5 |  |  | 30900 M⁻¹ s⁻¹ | 0.000142 s⁻¹ | 8.05 |
